From publication PMC7393090

Target: tau Venus BiFC constructs (UniProt P10636)
Assay: split reporter (BiFC, NanoBiT); Venus BiFC; co-culture of HEK293 cells transfected with the VN construct and cells transfected with the VC construct (50,000 cells each per ml, 48 h); flow cytometry, cells above 120 fluorescence units are positive; also run after treatment with anle138b 1 µM, EGCG 0.1 µM, fulvic acid 37 µM or dynasore 10 µM

- percent of BiFC positive cells (co-culture): 3.9%
Substance: tau Venus BiFC constructs (from UniProt P10636 1-758) (natural protein)
